Test results taken from article doi:10.1101/2021.02.19.432017 (bioRxiv, 2021).

T1: Kindlin-2 (human, UniProt Q96AC1 1-680)
T1 sequence: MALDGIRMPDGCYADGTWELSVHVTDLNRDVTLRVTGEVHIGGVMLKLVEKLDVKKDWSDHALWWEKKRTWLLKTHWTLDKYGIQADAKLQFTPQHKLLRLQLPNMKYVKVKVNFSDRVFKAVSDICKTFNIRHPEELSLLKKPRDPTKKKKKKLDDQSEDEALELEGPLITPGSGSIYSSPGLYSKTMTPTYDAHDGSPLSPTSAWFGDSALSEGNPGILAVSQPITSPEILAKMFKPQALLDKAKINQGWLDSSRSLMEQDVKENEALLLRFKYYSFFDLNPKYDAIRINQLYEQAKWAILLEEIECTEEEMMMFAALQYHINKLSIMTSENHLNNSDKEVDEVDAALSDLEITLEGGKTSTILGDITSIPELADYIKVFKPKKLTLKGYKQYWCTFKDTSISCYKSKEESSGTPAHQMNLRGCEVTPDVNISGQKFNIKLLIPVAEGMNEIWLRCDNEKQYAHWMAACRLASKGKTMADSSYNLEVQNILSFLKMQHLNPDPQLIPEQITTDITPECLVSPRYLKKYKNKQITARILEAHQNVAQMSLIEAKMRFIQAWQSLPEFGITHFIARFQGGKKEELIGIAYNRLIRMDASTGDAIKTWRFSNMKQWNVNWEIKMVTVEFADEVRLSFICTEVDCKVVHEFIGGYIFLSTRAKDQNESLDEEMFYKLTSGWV

B1: Integrin linked kinase (ILK), subunit of the IPP complex (natural protein)
chain: MDDIFTQCREGNAVAVRLWLDNTENDLNQGDDHGFSPLHWACREGRSAVVEMLIMRGARINVMNRGDDTPLHLAASHGHRDIVQKLLQYKADINAVNEHGNVPLHYACFWGQDQVAEDLVANGALVSICNKYGEMPVDKAKAPLRELLRERAEKMGQNLNRIPYKDTFWKGTTRTRPRNGTLNKHSGIDFKQLNFLTKLNENHSGELWKGRWQGNDIVVKVLKVRDWSTRKSRDFNEECPRLRIFSHPNVLPVLGACQSPPAPHPTLITHWMPYGSLYNVLHEGTNFVVDQSQAVKFALDMARGMAFLHTLEPLIPRHALNSRSVMIDEDMTARISMADVKFSFQCPGRMYAPAWVAPEALQKKPEDTNRRSADMWSFAVLLWELVTREVPFADLSNMEIGMKVALEGLRPTIPPGISPHVCKLMKICMNEDPAKRPKFDMIVPILEKMQDK
B2: Ras suppressor-1 (Rsu-1), wild type (natural protein)
chain: MSKSLKKLVEESREKNQPEVDMSDRGISNMLDVNGLFTLSHITQLVLSHNKLTMVPPNIAELKNLEVLNFFNNQIEELPTQISSLQKLKHLNLGMNRLNTLPRGFGSLPALEVLDLTYNNLSENSLPGNFFYLTTLRALYLSDNDFEILPPDIGKLTKLQILSLRDNDLISLPKEIGELTQLKELHIQGNRLTVLPPELGNLDLTGQKQVFKAENNPWVTPIADQFQLGVSHVFEYIRSETYKYLYGRHMQANPEPPKKNNDKSKKISRKPLAAKNR
B3: PINCH-2 LIM5S (size exclusion) (domain or fragment)
chain: GDVCYNCSHVIEGDVVSALNKAWCVSCFSCSTCNSKLTLKNKFVEFDMKPVCKRCYEKFPLELKKRLKKLSELTSRK

What was measured:
Assay in all cases: SEC
Kindlin-2 = target: T1, Kindlin-2
[1] = target: PINCH-1 (residues 1-325), subunit of the IPP complex (human, UniProt P48059 1-325)
[2] = target: B2

Sequence of PINCH-1 (residues 1-325), subunit of the IPP complex (P48059 whole entry, the tested form may be a part, one chain of several): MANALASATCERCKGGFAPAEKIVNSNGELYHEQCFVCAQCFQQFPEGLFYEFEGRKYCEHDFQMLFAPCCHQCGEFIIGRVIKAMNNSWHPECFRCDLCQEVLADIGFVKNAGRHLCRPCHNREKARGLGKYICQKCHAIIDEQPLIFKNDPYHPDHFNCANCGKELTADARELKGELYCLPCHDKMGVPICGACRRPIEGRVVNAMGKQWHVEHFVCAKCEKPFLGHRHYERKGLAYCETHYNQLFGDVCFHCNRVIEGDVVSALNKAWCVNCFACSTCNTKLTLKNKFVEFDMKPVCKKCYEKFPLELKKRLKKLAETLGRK

Binder: B1
binding result (Kindlin-2): binds

Binder: B2
binding result [1]: binds

Binder: B3
binding result [2]: binds
